Test results reported in patent US12441803B2, “Engineered CD25 polypeptides and uses thereof” (iBio, Inc., priority 2018, dated 2025).
Numbering of substitutions follows the chain as printed.

T1: CD25 (Homo sapiens, UniProt P01589)
T1 sequence (P01589 22-272): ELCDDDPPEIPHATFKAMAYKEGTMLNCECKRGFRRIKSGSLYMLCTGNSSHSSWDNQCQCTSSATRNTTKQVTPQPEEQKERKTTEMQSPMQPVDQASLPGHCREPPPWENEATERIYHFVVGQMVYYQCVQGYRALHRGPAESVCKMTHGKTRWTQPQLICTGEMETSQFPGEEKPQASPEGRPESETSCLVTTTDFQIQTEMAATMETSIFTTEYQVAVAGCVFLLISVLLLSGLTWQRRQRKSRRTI

B1: YU397-D01: anti-CD25 scFv clone, SEQ ID NO: 817 (protein, listed as Mus musculus)
scFv: PSGTLSLTCAVSGGSISSSNWWSWVRQPPGKGLEWIGEIYHSGSTNYNPSLKSRVTISVDKSKNQFSLKLSSVTAADTAVYYCARARGGRYFDYWGQGTLVTVSSCARARGGRYFDYWDIVLTQSPSFLSASVGDRVTITCRASQGISTYLAWYQQKPGTAPKVLMYAASTLHSGVPSRFSGSGSGTEFTLTISSLQPEDFAIYYCQQLNGYPTTFGGGTRVEIKCQQLNGYPTTF
B2: YU398-A11: anti-CD25 scFv clone, SEQ ID NO: 818 (protein, listed as Mus musculus)
scFv: PGRSLRLSCAASGFTFSSYGMHWVRQAPGKGLEWVAVISYDGSNKYYADSVKGRFTISRDNSKNTLYLQMNSLRAEDTAVYYCAKGQGDGMDVWGQGTTVTVSSCAKGQGDGMDVWYELTQPPSASGTPGQRVTISCSGSSSNVGSRTVSWFQQLPGTAPKLLIYSNNLRPSGVPDRFSGSKSGTSASLAISGLQSEDEADYYCAAWDDSLIGHVFGTGTKVTVVCAAWDDSLIGHVF
B3: YU400-B07: anti-CD25 scFv clone, SEQ ID NO: 822 (protein, listed as Mus musculus)
scFv: PGRSLRLSCAASGFTFSSYGMHWVRQAPGKGLEWVAVISYDGSNKYYADSVKGRFTISRDNSKNTLYLQMNSLRAEDTAVYYCAKGDVNYGMDVWGQGTTVTVSSCAKGDVNYGMDVWSYVLTQPPSVSVAPGKTARITCGGNNIGSKSVHWYQQKPGQAPVLVVYDDTDRPSGIPERFSGSNSGNTATLTISRVEAGDEADYYCQVWDSSSDLLWVFGGGTKLAVLCQVWDSSSDLLWVF
B4: YU400-D09: anti-CD25 scFv clone, SEQ ID NO: 823 (protein, listed as Mus musculus)
scFv: PGSSVKVSCKASGGTFSSYAISWVRQAPGQGLEWMGGIIPIFGTANYAQKFQGRVTITADESTSTAYMELSSLRSEDTAVYYCARDFNPFSITIFEMDVWGQGTTVTVSSCARDFNPFSITIFEMDVWQSVLTQPPSVSAAPGQKVTISCSGSSSNIGNNYVSWYQQLPGTAPKLLIYDNNKRPSGIPDRFSGSKSGTSATLGITGLQTGDEADYYCGTWDSSLSALVFGGGTKLTVLCGTWDSSLSALVF
B5: YU401-B01: anti-CD25 scFv clone, SEQ ID NO: 827 (protein, listed as Mus musculus)
scFv: PGSSVKVSCKASGGTFSSYAISWVRQAPGQGLEWMGGIIPIFGTANYAQKFQGRVTITADESTSTAYMELSSLRSEDTAVYYCAREMYYYYGMDVWGQGTTVTVSSCAREMYYYYGMDVWDIVMTQSPSSLSASVGDRVTITCRASQSIITYLNWYQQKPGKVPKLLIYAASSLQSGVPSRFSGSGSGTDFTLTISSLQPEDFATYYCQQSYSTPPTFGQGTKLEIKCQQSYSTPPTF
B6: YU401-G07: anti-CD25 scFv clone, SEQ ID NO: 831 (protein, listed as Mus musculus)
scFv: LGRSLRLSCAASGFTFSSYGMHWVRQAPGKGLEWVAVISYDGSNKYYADSVKGRFTISRDNSKNTLYLQMNSLRAEDTAVYYCAKGDVNYGMDVWGQGTTVTVSSCAKGDVNYGMDVWSYVLTQPPSVSVAPGQTARISCGGSNIGSKTVNWYRKKAGQAPVLVVYDGRDRPSGIPERFSGSNSGNAATLIISRVEVGDEADYYCQVWDTSGDLHWAFGGGTKLTVLCQVWDTSGDLHWAF
B7: YU403-G05: anti-CD25 scFv clone, SEQ ID NO: 835 (protein, listed as Mus musculus)
scFv: PSGDLSLTCDVSGGSISRSNWWIWVRQPPGKGLEWIGEIYHTGSTNYNPSLKRRVTISVDKSKNQFSLNLSSVTAADTAVYYCARGKGSYAFDIWGLGTMVTVSSCARGKGSYAFDIWVLTQPHSVSESPGKTVTISCTGSGGNIARNYVQWYQHRPGRAPSTVIYEDDRRPSGVPDRFSGSTDISSNSASLTISGLKTEDEADYYCQSYDGNNHMVFGGGTRVTVLCQSYDGNNHMVF
B8: YU392-A09: anti-CD25 scFv clone, SEQ ID NO: 749 (protein, listed as Mus musculus)
scFv: PGATVKISCKVSGYTFTDYYMHWVQQAPGKGLEWMGLVDPEDGETIYAEKFQGRVTITADTSTDTAYMELSSLRSEDTAVYYCATEGRYGMDVWGQGTTVTVSSCATEGRYGMDVWQAVLTQPPSVSGTPGQRVTISCSGNNFNIGNNLVYWYQQLPGTAPKLLIYANDERPSGVPDRFSGSKSGTSASLAISGLRSEDDADYYCATWDDSLSGVVFGGGTKLTALCATWDDSLSGVVF
B9: YU392-B11: anti-CD25 scFv clone, SEQ ID NO: 750 (protein, listed as Mus musculus)
scFv: PGATVKISCKVSGYTFTDYYMHWVQQAPGKGLEWMGLVDPEDGETIYAEKFQGRVTITADTSTDTAYMELSSLRSEDTAVYYCAVEGGRAPGTYYYDSSGLAYWGQGTLVTVSSCAVEGGRAPGTYYYDSSGLAYWQAGLTQPPSASGTPGQRVTISCSGSSSNIGSNYVYWYQQLPGTAPKLLIYSNNQRPSGVPDRFSGSKSGTSASLAISGLRSEDEADYYCATWDDSLSGVVFGGGTKLTVLCATWDDSLSGVVF
B10: YU389-A03: anti-CD25 scFv clone, SEQ ID NO: 730 (protein, listed as Mus musculus)
scFv: PSQTLSLTCTVSGGSISSGGYYWSWIRQHPGKGLEWIGYIYYSGSTYYNPSLKSRVTISVDTSKNQFSLKLSSVTAADTAVYYCARGNLWSGYYFWGQGTLVTVSSCARGNLWSGYYFWQSVLTQPPSVSAAPGQKVTISCSGSSSNIGNNFVSWYQQVPGTAPKLLTYDSTKRPAGIPDRFSGSKSGTSATLEIAGLQTGDEADYYCGSWDTNLSGYVFGTGTKVTVLCGSWDTNLSGYVF
B11: YU390-A11: anti-CD25 scFv clone, SEQ ID NO: 736 (protein, listed as Mus musculus)
scFv: PGRSLRLSCAASGFTFSSYGMHWVRQAPGKGLEWVAVISYDGSNKYYADSVKGRFTISRDNSKNTLYLQMNSLRAEDTAVYYCAKELLEGAFDIWGQGTMVTVSSCAKELLEGAFDIWSYVLTQPPSLSVAPGQTARITCGGDNIETKSVHWYQQRPGQAPVLVVYDDDDRPSGIPERFSGSNSGNTATLTISRVEAGDEADYYCQVWDSSSGHREVFGGRTKPALLCQVWDSSSGHREVF
B12: YU390-B12: anti-CD25 scFv clone, SEQ ID NO: 738 (protein, listed as Mus musculus)
scFv: B11 scFv with R221G, P224L, A225T, L226V

Target: T1, CD25
Assay: Binding of human IgG1 format antibodies to CD25 by Octet
Details: read-out: Biosensor Measured CD25 Affinity
Excerpt: Thirty antibodies were selected for additional testing as full-length immunoglobulins. The heavy and light chain sequences were cloned into human immunoglobulin G (IgG1) format and expressed and purified.

Molecule | Kd [nM]
B1 | 3.86
B2 | 12.1
B3 | 57.8
B4 | 54.6
B5 | 70.4
B6 | 15.3
B7 | 31.9
B8 | 12.4
B9 | 65.6
B10 | 9.55
B11 | 13.3
B12 | 13.7
